# From PMC7364221
# Target: T1, ClbR (Escherichia coli Nissle 1917) (UniProt Q0P7J1)
# T1 sequence: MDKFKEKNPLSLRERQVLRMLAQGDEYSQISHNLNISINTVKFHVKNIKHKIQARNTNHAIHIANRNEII
# Experiment: EMSA
# Conditions: pH and temperature not stated
row,Sequence,binding
1,CCAGTCACGACGTTGTAATACGACGGCCAGAGAATCCGTAATCATAGTCATAGCTGTATCCTGTGTGAAATTGTTATCCGCTCATAATTTCACACAACATACGAGCCGGACACATAGAGTGTAAAGACTGGGGTGCCTAATGAGTGAGCTGACTCACATTAATTGTGTTGCGCTCACTGCCCGCTTTCCAGTCGGGAAACTTGTCGTGCCAGCTGCATTAATGAATCGG (double strand) [lacZ promoter probe (229 bp)],no binding
2,"GAGATTTTCCATGTAATAAGATGGACACGCGTAAGCAGTTACCGCTAACACCAAGTCAACAGGGGTTTTTATTCCATTCCTTAAAGGATAAGAAAAGGAGTAACTACCATGAGCA (double strand) [probe 8 (clbB upstream, 115 bp)]",no binding
3,"TGCGGATAGGTGTGCCATTTAGAATAATCATGTTAAATAATCTATAAATCCGATAATAAGGTGATGGTTATGGATAATACCTCTGGAGATTTTCCATGTAATAAGATGGACACGCGTAAGCAGTTACCGCTAACACCAAGTCAACAGGGGTTTTTATTCCATTCCTTAAAGGATAAGAAAAGGAGTAACTACCATGAGCA (double strand) [probe 11 (clbB upstream, 200 bp)]",no binding
4,"TGCTCATGGTAGTTACTCCTTTTCTTATCCTTTAAGGAATGGAATAAAAACCCCTGTTGACTTGGTGTTAGCGGTAACTGCTTACGCGTGTCCATCTTATTACATGGAAAATCTCCAGAGGTATTATCCATAACCATCACCTTATTATCGGATTTATAGATTATTTAACAT (double strand) [probe 7 (clbB upstream, 171 bp)]",no binding
5,"TGCTCATGGTAGTTACTCCTTTTCTTATCCTTTAAGGAATGGAATAAAAACCCCTGTTGACTTGGTGTTAGCGGTAACTGCTTACGCGTGTCCATCTTATTACATGGAAAATCTCCAGAGGTATTATCCATAACCATCACCTTATTATCGGATTTATAGATTATTTAACATGATTATTCTAAATGG (double strand) [probe 12 (clbB upstream, 186 bp)]",no binding
